Experimental data reported in paper PMC3508296.

Target: fibronectin (UniProt P02751)
Assay: SPR

Sequence of fibronectin (P02751 32-2477): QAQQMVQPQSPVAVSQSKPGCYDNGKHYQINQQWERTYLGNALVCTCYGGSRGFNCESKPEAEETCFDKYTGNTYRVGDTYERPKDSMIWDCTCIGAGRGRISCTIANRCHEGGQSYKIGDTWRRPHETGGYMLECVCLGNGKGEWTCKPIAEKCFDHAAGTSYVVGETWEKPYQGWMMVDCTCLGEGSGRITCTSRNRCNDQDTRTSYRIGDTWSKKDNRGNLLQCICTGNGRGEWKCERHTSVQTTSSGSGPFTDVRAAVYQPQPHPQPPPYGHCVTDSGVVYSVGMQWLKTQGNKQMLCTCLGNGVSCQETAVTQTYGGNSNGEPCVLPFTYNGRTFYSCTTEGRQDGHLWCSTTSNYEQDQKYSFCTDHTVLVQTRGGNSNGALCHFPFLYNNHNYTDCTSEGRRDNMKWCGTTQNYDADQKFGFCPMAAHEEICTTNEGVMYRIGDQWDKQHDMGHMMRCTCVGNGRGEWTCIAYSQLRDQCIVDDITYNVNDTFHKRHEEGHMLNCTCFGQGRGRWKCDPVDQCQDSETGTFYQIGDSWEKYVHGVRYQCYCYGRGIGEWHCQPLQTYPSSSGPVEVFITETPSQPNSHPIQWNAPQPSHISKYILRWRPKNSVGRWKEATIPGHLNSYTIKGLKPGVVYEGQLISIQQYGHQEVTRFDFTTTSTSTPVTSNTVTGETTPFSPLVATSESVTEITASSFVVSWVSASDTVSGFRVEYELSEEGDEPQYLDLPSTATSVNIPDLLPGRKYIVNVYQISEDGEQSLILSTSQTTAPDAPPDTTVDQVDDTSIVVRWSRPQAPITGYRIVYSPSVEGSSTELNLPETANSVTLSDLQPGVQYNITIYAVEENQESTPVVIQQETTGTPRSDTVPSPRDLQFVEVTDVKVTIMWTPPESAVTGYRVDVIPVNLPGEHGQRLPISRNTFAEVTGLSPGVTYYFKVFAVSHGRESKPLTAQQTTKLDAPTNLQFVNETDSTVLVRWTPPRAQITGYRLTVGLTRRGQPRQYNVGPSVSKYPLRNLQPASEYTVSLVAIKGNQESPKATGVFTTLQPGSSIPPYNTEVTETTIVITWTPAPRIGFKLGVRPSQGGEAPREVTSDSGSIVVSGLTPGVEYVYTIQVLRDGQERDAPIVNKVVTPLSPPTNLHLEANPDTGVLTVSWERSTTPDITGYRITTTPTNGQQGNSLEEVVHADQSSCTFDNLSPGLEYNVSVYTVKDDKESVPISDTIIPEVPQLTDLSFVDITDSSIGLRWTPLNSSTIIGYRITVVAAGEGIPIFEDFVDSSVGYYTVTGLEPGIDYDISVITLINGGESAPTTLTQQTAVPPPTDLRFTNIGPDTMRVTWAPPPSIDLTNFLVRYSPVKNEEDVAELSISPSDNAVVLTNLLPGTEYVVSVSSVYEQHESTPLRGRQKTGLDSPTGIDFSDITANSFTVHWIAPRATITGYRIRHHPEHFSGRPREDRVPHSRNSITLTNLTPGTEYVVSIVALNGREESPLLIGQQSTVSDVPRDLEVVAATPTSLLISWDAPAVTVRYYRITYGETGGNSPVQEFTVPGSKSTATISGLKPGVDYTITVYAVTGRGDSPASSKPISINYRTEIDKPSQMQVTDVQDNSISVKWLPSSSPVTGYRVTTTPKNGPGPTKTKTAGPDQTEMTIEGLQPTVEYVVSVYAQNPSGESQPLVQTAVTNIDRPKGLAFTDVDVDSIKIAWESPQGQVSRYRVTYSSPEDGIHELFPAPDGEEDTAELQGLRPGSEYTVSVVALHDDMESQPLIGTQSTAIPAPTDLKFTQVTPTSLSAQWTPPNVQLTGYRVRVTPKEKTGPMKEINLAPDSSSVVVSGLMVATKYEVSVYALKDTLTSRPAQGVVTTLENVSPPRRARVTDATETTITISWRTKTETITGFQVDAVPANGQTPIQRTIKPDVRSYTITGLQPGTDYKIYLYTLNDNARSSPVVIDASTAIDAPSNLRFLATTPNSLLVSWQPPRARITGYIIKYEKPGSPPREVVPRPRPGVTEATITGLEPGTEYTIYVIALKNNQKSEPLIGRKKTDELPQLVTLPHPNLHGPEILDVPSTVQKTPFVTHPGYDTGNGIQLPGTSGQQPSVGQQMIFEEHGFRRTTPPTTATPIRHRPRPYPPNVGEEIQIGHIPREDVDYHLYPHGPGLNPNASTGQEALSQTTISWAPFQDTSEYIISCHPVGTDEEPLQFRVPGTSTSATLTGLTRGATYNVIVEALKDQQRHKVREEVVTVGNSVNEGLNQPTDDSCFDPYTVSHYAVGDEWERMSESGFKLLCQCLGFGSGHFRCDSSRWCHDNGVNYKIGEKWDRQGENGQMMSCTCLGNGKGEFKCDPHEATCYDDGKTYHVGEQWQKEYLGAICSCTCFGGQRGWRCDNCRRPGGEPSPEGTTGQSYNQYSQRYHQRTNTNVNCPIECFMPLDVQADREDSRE

| Substance | Kd [nM] | koff [s⁻¹] | kon [M⁻¹ s⁻¹] | t1/2 (calculated from Koff) [s] |
| --- | --- | --- | --- | --- |
| BB0347 (natural protein; other documents disagree on this pair) | 640 | 0.16 | 265000 | – |
| BBK32 (from UniProt O50835 1-354) (natural protein; other documents disagree on this pair) | 19 | 0.1 | 5.21e+06 | 6.93 |
